Measured values published in article PMC3843708, “Mutational Analysis of Sclerostin Shows Importance of the Flexible Loop and the Cystine-Knot for Wnt-Signaling Inhibition” (PLoS ONE, 2013).
One block for each molecule: values may come before it.

Tests used:
LRP6 E3E4 (Homo sapiens) = LRP6 E3E4 (Homo sapiens) (UniProt O75581); settings: cited from earlier work
LRP6 E1E2 (Homo sapiens) = LRP6 E1E2 (Homo sapiens) (UniProt O75581); settings: cited from earlier work
[1] = molecular target: LRP6 second propeller domain (Homo sapiens) (UniProt O75581); settings: cited from earlier work
[2] = molecular target: LRP6 first propeller domain (Homo sapiens) (UniProt O75581); settings: cited from earlier work
human LRP6 = human LRP6 (human, UniProt O75581 20-1613); test: cell-based or functional assay
[3] = molecular target: T1, human LRP6 protein fragment comprising propeller domains E1 and E2 (LRP6E1E2) (human, UniProt O75581 20-630); test: cell-based or functional assay
T1 sequence (looked up): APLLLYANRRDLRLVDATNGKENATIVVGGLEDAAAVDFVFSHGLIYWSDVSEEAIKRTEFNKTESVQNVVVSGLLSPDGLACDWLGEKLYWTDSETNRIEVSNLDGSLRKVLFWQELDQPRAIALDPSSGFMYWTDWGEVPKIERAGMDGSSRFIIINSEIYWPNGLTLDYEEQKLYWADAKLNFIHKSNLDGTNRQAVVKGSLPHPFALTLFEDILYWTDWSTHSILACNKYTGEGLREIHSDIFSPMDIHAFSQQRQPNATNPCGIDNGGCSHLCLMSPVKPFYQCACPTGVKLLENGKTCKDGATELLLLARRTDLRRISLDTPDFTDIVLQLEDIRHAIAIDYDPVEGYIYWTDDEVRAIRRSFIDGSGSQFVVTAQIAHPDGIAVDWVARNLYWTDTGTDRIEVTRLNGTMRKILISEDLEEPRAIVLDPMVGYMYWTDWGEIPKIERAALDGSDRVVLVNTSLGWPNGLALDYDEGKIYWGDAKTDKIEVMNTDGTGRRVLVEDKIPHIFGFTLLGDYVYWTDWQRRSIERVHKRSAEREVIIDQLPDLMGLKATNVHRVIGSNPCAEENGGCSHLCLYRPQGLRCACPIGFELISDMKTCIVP

LRP6 E3E4 (Homo sapiens), sequence (O75581 631-1246): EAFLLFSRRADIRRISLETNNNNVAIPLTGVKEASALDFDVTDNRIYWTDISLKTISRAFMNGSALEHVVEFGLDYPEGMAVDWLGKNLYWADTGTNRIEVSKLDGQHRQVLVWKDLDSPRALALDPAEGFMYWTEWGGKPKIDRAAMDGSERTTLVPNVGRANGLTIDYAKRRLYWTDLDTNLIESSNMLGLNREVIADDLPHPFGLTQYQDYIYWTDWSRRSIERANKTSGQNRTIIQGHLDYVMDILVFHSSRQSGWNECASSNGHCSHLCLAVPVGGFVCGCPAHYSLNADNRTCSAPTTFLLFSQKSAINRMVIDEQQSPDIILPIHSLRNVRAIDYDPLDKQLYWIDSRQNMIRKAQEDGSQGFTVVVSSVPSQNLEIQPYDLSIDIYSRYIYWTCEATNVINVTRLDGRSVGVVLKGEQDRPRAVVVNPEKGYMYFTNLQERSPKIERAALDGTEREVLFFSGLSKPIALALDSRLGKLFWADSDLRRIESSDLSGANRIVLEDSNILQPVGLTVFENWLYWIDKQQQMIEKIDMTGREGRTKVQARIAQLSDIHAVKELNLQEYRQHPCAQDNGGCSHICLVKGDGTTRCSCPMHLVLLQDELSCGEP

- fold decrease against wildtype of the efficiency to inhibit Wnt1-driven SuperTOPFlash luciferase reporter (supernatants of HEK Freestyle cells expressing the variant) [3]: 10 fold
B2: Sclerostin C84AC142R (natural protein, murine, UniProt Q99P68 24-211, looked up)
chain: QGWQAFRNDATEVIPGLGEYPEPPPENNQTMNRAENGGRPPHHPYDAKDVSEYSCRELHYTRFLTDGPCRSAKPVTELVCSGQAGPARLLPNAIGRVKWWRPNGPDFRCIPDRYRAQRVQLLCPGGAAPRSRKVRLVASCKRKRLTRFHNQSELKDFGPETARPQKGRKPRPGARGAKANQAELENAY
modifications: biotinylated (EZ-Link Sulfo-NHS-LC-Biotin, molar ratio 1:1.5) in the pull-down

- IC50 of inhibition of Wnt1-driven SuperTOPFlash luciferase reporter, HEK-293TSA M50 cells transfected with mWnt1 (human LRP6): 26.9 nM
B4: Sclerostin I94A (natural protein, murine, UniProt Q99P68 24-211, looked up)
chain: QGWQAFRNDATEVIPGLGEYPEPPPENNQTMNRAENGGRPPHHPYDAKDVSEYSCRELHYTRFLTDGPCRSAKPVTELVCSGQCGPARLLPNAAGRVKWWRPNGPDFRCIPDRYRAQRVQLLCPGGAAPRSRKVRLVASCKCKRLTRFHNQSELKDFGPETARPQKGRKPRPGARGAKANQAELENAY

- IC50 of inhibition of Wnt1-driven SuperTOPFlash luciferase reporter, HEK-293TSA M50 cells transfected with mWnt1 (human LRP6): 196 nM
B5: Sclerostin N92A (natural protein, murine, UniProt Q99P68 24-211, looked up)
chain: QGWQAFRNDATEVIPGLGEYPEPPPENNQTMNRAENGGRPPHHPYDAKDVSEYSCRELHYTRFLTDGPCRSAKPVTELVCSGQCGPARLLPAAIGRVKWWRPNGPDFRCIPDRYRAQRVQLLCPGGAAPRSRKVRLVASCKCKRLTRFHNQSELKDFGPETARPQKGRKPRPGARGAKANQAELENAY

- IC50 of inhibition of Wnt1-driven SuperTOPFlash luciferase reporter, HEK-293TSA M50 cells transfected with mWnt1 (human LRP6): 806 nM
- IC50 of inhibition of Wnt3a-driven SuperTOPFlash luciferase reporter, HEK-293TSA M50 cells with 1.5 nM mWnt3a (human LRP6): 655 nM
B6: Sclerostin ΔLoop (natural protein, murine, UniProt Q99P68 24-211, looked up)
chain: QGWQAFRNDATEVIPGLGEYPEPPPENNQTMNRAENGGRPPHHPYDAKDVSEYSCRELHYTRFLTDGPCRSAKPVTELVCSGQCGPARLGSGPDFRCIPDRYRAQRVQLLCPGGAAPRSRKVRLVASCKCKRLTRFHNQSELKDFGPETARPQKGRKPRPGARGAKANQAELENAY
modifications: 125I-iodinated (Chloramine T) where used as radioligand; biotinylated (EZ-Link Sulfo-NHS-LC-Biotin, molar ratio 1:1.5) in the pull-down

Second part, the molecule before the results:

Molecule: Dkk1 (from UniProt O94907)
- Kd (LRP6 E3E4 (Homo sapiens)): 60 nM
- Kd (LRP6 E1E2 (Homo sapiens)): 60 nM

Molecule: Sclerostin (from UniProt Q9BQB4)
- Kd [1]: 1300 nM
- Kd [2]: 60 nM

B1: wildtype full-length murine Sclerostin (natural protein, UniProt Q99P68 24-211, looked up)
chain: QGWQAFRNDATEVIPGLGEYPEPPPENNQTMNRAENGGRPPHHPYDAKDVSEYSCRELHYTRFLTDGPCRSAKPVTELVCSGQCGPARLLPNAIGRVKWWRPNGPDFRCIPDRYRAQRVQLLCPGGAAPRSRKVRLVASCKCKRLTRFHNQSELKDFGPETARPQKGRKPRPGARGAKANQAELENAY
modifications: 125I-iodinated (Chloramine T) where used as radioligand; biotinylated (EZ-Link Sulfo-NHS-LC-Biotin, molar ratio 1:1.5) in the pull-down
- IC50 of inhibition of Wnt1-driven SuperTOPFlash luciferase reporter, HEK-293TSA M50 cells transfected with mWnt1 (human LRP6): 10 nM

B3: Sclerostin Alaloop (natural protein, murine, UniProt Q99P68 24-211, looked up)
chain: QGWQAFRNDATEVIPGLGEYPEPPPENNQTMNRAENGGRPPHHPYDAKDVSEYSCRELHYTRFLTDGPCRSAKPVTELVCSGQCGPARLSPGASGARSGSAPAGPDFRCIPDRYRAQRVQLLCPGGAAPRSRKVRLVASCKCKRLTRFHNQSELKDFGPETARPQKGRKPRPGARGAKANQAELENAY
modifications: 125I-iodinated (Chloramine T) where used as radioligand
- IC50 of inhibition of Wnt1-driven SuperTOPFlash luciferase reporter, HEK-293TSA M50 cells transfected with mWnt1 (human LRP6): 831 nM
- IC50 of inhibition of Wnt3a-driven SuperTOPFlash luciferase reporter, HEK-293TSA M50 cells with 1.5 nM mWnt3a (human LRP6): 1110 nM
